Laboratory results as given in patent US20140370558.

Tests used:
Assay in all cases: cell_activity
[1] = system: FAD2_T02_Left_C11 TALEN monomer (synthetic (TAL effector-nuclease fusion)?); settings: yeast reporter; value of pair with T01_Right_C11 on Target 2
[2] = system: FAD2_T02_Left_C40 TALEN monomer (synthetic (TAL effector-nuclease fusion)?); settings: yeast reporter; value of pair with T01_Right_C40 on Target 2
[3] = system: FAD2_T01_Left_C11 + FAD2_T01_Right_C11 TALEN pair; settings: yeast reporter cleavage
[4] = system: FAD2_T01_Left_C40 + FAD2_T01_Right_C40 TALEN pair; settings: yeast reporter cleavage
[5] = system: FAD2_T02_Left_C11 + FAD2_T01_Right_C11 TALEN pair; settings: yeast reporter cleavage
[6] = system: FAD2_T02_Left_C40 + FAD2_T01_Right_C40 TALEN pair; settings: yeast reporter cleavage
[7] = system: FAD2_T03_Left_C11 + FAD2_T03_Right_C11 TALEN pair; settings: yeast reporter cleavage
[8] = system: FAD2_T03_Left_C40 + FAD2_T03_Right_C40 TALEN pair; settings: yeast reporter cleavage
[9] = system: FAD2_T04_Left_C11 + FAD2_T03_Right_C11 TALEN pair; settings: yeast reporter cleavage
[10] = system: FAD2_T04_Left_C40 + FAD2_T03_Right_C40 TALEN pair; settings: yeast reporter cleavage
[11] = system: FAD2_T03_Right_C11 TALEN monomer (synthetic (TAL effector-nuclease fusion)?); settings: yeast reporter; value of pair with T03_Left_C11 on Target 3
[12] = system: FAD2_T03_Right_C40 TALEN monomer (synthetic (TAL effector-nuclease fusion)?); settings: yeast reporter; value of pair with T03_Left_C40 on Target 3
[13] = system: FAD2_T01_Right_C11 TALEN monomer (synthetic (TAL effector-nuclease fusion)?); settings: yeast reporter; value of pair with T01_Left_C11 on Target 1
[14] = system: FAD2_T01_Right_C40 TALEN monomer (synthetic (TAL effector-nuclease fusion)?); settings: yeast reporter; value of pair with T01_Left_C40 on Target 1
[15] = system: FAD2_T04_Left_C11 TALEN monomer (synthetic (TAL effector-nuclease fusion)?); settings: yeast reporter; value of pair with T03_Right_C11 on Target 4
[16] = system: FAD2_T04_Left_C40 TALEN monomer (synthetic (TAL effector-nuclease fusion)?); settings: yeast reporter; value of pair with T03_Right_C40 on Target 4
[17] = system: FAD2_T03_Left_C11 TALEN monomer (synthetic (TAL effector-nuclease fusion)?); settings: yeast reporter; value of pair with T03_Right_C11 on Target 3
[18] = system: FAD2_T03_Left_C40 TALEN monomer (synthetic (TAL effector-nuclease fusion)?); settings: yeast reporter; value of pair with T03_Right_C40 on Target 3
[19] = system: FAD2_T01_Left_C11 TALEN monomer (synthetic (TAL effector-nuclease fusion)?); settings: yeast reporter; value of pair with T01_Right_C11 on Target 1
[20] = system: FAD2_T01_Left_C40 TALEN monomer (synthetic (TAL effector-nuclease fusion)?); settings: yeast reporter; value of pair with T01_Right_C40 on Target 1
[21] = left site truncated in Target 3
[22] = left site truncated in Target 1

| Sequence | activity (relative to I-SceI) [3] | activity (relative to I-SceI) [4] | activity (relative to I-SceI) [5] | activity (relative to I-SceI) [6] | activity (relative to I-SceI) [7] | activity (relative to I-SceI) [8] | activity (relative to I-SceI) [9] | activity (relative to I-SceI) [10] | further results |
| --- | --- | --- | --- | --- | --- | --- | --- | --- | --- |
| ACATTGCCACCACCTACTTCCACCT (double strand) [FAD2_T02 left half-site] | – | – | – | – | – | – | – | – | activity (relative to I-SceI) [1]: 0.97; activity (relative to I-SceI) [2]: 0.96 |
| ACATTGCCACCACCTACTTCCACCTCCTTCCTCAACCCTTTTCCCTCATTGCATGGCCAATCT (double strand) [FAD2 Target 2] | 0.87 | 0.73 | 0.97 | 0.96 | 0 | 0 | 0 | 0 | – |
| ACCGTGATGAAGTGTTTGTCCC (double strand) [FAD2_T03/T04 right half-site] | – | – | – | – | – | – | – | – | activity (relative to I-SceI) [11]: 0.65; activity (relative to I-SceI) [12]: 0.63 |
| ATTGCATGGCCAATCT (double strand) [FAD2_T01/T02 right half-site] | – | – | – | – | – | – | – | – | activity (relative to I-SceI) [13]: 0.73; activity (relative to I-SceI) [14]: 0.79 |
| ATTTCTCATGGAAAATAAGCCAT (double strand) [FAD2_T04 left half-site] | – | – | – | – | – | – | – | – | activity (relative to I-SceI) [15]: 0.54; activity (relative to I-SceI) [16]: 0.52 |
| ATTTCTCATGGAAAATAAGCCATCGCCGCCATCACTCCAACACAGGTTCCCTTGACCGTGATGAAGTGTTTGTCCC (double strand) [FAD2 Target 4] | 0 | 0 | 0 | 0 | 0.53 | 0.51 | 0.54 | 0.52 | – |
| CTCATGGAAAATAAGCCAT (double strand) [FAD2_T03 left half-site] | – | – | – | – | – | – | – | – | activity (relative to I-SceI) [17]: 0.65; activity (relative to I-SceI) [18]: 0.63 |
| CTCATGGAAAATAAGCCATCGCCGCCATCACTCCAACACAGGTTCCCTTGACCGTGATGAAGTGTTTGTCCC (double strand) [FAD2 Target 3] | 0 | 0 | 0 | 0 | 0.65 | 0.63 | – | – | activity (relative to I-SceI) [9, 21]: 0; activity (relative to I-SceI) [10, 21]: 0 |
| GCCACCACCTACTTCCACCTCCT (double strand) [FAD2_T01 left half-site] | – | – | – | – | – | – | – | – | activity (relative to I-SceI) [19]: 0.73; activity (relative to I-SceI) [20]: 0.79 |
| GCCACCACCTACTTCCACCTCCTTCCTCAACCCTTTTCCCTCATTGCATGGCCAATCT (double strand) [FAD2 Target 1] | 0.73 | 0.79 | – | – | 0 | 0 | 0 | 0 | activity (relative to I-SceI) [5, 22]: 0; activity (relative to I-SceI) [6, 22]: 0 |
